Experimental data taken from patent US20230002496A1 (STAIDSON BEIJING BIOPHARMACEUTICALS, published 2023).

T1: human GM-CSFRα, full length on cells (human, UniProt P15509 23-400)
T1 sequence: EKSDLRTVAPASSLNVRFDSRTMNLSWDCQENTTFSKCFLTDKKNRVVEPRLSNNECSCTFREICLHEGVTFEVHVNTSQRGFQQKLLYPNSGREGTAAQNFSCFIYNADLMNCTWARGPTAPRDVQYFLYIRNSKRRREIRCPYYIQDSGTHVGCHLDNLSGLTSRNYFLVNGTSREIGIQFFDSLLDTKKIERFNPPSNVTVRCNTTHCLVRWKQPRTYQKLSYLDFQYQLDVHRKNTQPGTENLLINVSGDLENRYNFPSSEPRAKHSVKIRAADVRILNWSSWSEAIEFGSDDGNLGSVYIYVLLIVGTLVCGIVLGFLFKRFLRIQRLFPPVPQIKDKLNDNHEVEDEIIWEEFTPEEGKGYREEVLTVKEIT


Target: T1, human GM-CSFRα, full length on cells
Experiment: cell-based or functional assay

Binder	IC50, TF-1 cell proliferation
E35-scFv LS28E (scFv, V domains shown) VH: QMQLVQSGAEVKKPGASVKVSCKVSGYTLTELSIHWVRQAPGKGLEWMGGFDPEDGETIYAQKFQGRVTMTGDTSTDTAYLELSSLRSEDTALYYCATGRYTSLATTYGFDYWGQGTLVTVSS VL: EIVMTQSPATLSLSPGERATLSCRASQEVSSYLAWYQQKPGQAPRLLIYGASSRATGIPDRFSGSGSGTDFTLTISRLEPEDFAVYYCQQYDNWPYTFGQGTKLEIK	0.111 µg/mL
E35-scFv LS28K (scFv, V domains shown) VH: QMQLVQSGAEVKKPGASVKVSCKVSGYTLTELSIHWVRQAPGKGLEWMGGFDPEDGETIYAQKFQGRVTMTGDTSTDTAYLELSSLRSEDTALYYCATGRYTSLATTYGFDYWGQGTLVTVSS VL: EIVMTQSPATLSLSPGERATLSCRASQKVSSYLAWYQQKPGQAPRLLIYGASSRATGIPDRFSGSGSGTDFTLTISRLEPEDFAVYYCQQYDNWPYTFGQGTKLEIK	0.082 µg/mL
E35-scFv LS28I (scFv, V domains shown) VH: QMQLVQSGAEVKKPGASVKVSCKVSGYTLTELSIHWVRQAPGKGLEWMGGFDPEDGETIYAQKFQGRVTMTGDTSTDTAYLELSSLRSEDTALYYCATGRYTSLATTYGFDYWGQGTLVTVSS VL: EIVMTQSPATLSLSPGERATLSCRASQIVSSYLAWYQQKPGQAPRLLIYGASSRATGIPDRFSGSGSGTDFTLTISRLEPEDFAVYYCQQYDNWPYTFGQGTKLEIK	0.091 µg/mL
E35-scFv LS28F (scFv, V domains shown) VH: QMQLVQSGAEVKKPGASVKVSCKVSGYTLTELSIHWVRQAPGKGLEWMGGFDPEDGETIYAQKFQGRVTMTGDTSTDTAYLELSSLRSEDTALYYCATGRYTSLATTYGFDYWGQGTLVTVSS VL: EIVMTQSPATLSLSPGERATLSCRASQFVSSYLAWYQQKPGQAPRLLIYGASSRATGIPDRFSGSGSGTDFTLTISRLEPEDFAVYYCQQYDNWPYTFGQGTKLEIK	0.1 µg/mL
E35-scFv LS28Q (scFv, V domains shown) VH: QMQLVQSGAEVKKPGASVKVSCKVSGYTLTELSIHWVRQAPGKGLEWMGGFDPEDGETIYAQKFQGRVTMTGDTSTDTAYLELSSLRSEDTALYYCATGRYTSLATTYGFDYWGQGTLVTVSS VL: EIVMTQSPATLSLSPGERATLSCRASQQVSSYLAWYQQKPGQAPRLLIYGASSRATGIPDRFSGSGSGTDFTLTISRLEPEDFAVYYCQQYDNWPYTFGQGTKLEIK	0.154 µg/mL
E35-scFv (scFv, V domains shown) VH: QMQLVQSGAEVKKPGASVKVSCKVSGYTLTELSIHWVRQAPGKGLEWMGGFDPEDGETIYAQKFQGRVTMTGDTSTDTAYLELSSLRSEDTALYYCATGRYTSLATTYGFDYWGQGTLVTVSS VL: EIVMTQSPATLSLSPGERATLSCRASQSVSSYLAWYQQKPGQAPRLLIYGASSRATGIPDRFSGSGSGTDFTLTISRLEPEDFAVYYCQQYDNWPYTFGQGTKLEIK	0.12 µg/mL
E35-scFv LS28H (scFv, V domains shown) VH: QMQLVQSGAEVKKPGASVKVSCKVSGYTLTELSIHWVRQAPGKGLEWMGGFDPEDGETIYAQKFQGRVTMTGDTSTDTAYLELSSLRSEDTALYYCATGRYTSLATTYGFDYWGQGTLVTVSS VL: EIVMTQSPATLSLSPGERATLSCRASQHVSSYLAWYQQKPGQAPRLLIYGASSRATGIPDRFSGSGSGTDFTLTISRLEPEDFAVYYCQQYDNWPYTFGQGTKLEIK	0.058 µg/mL
E35-scFv LS28V (scFv, V domains shown) VH: QMQLVQSGAEVKKPGASVKVSCKVSGYTLTELSIHWVRQAPGKGLEWMGGFDPEDGETIYAQKFQGRVTMTGDTSTDTAYLELSSLRSEDTALYYCATGRYTSLATTYGFDYWGQGTLVTVSS VL: EIVMTQSPATLSLSPGERATLSCRASQVVSSYLAWYQQKPGQAPRLLIYGASSRATGIPDRFSGSGSGTDFTLTISRLEPEDFAVYYCQQYDNWPYTFGQGTKLEIK	0.104 µg/mL
E35-scFv LS28R (scFv, V domains shown) VH: QMQLVQSGAEVKKPGASVKVSCKVSGYTLTELSIHWVRQAPGKGLEWMGGFDPEDGETIYAQKFQGRVTMTGDTSTDTAYLELSSLRSEDTALYYCATGRYTSLATTYGFDYWGQGTLVTVSS VL: EIVMTQSPATLSLSPGERATLSCRASQRVSSYLAWYQQKPGQAPRLLIYGASSRATGIPDRFSGSGSGTDFTLTISRLEPEDFAVYYCQQYDNWPYTFGQGTKLEIK	0.077 µg/mL
E35-scFv LS28L (scFv, V domains shown) VH: QMQLVQSGAEVKKPGASVKVSCKVSGYTLTELSIHWVRQAPGKGLEWMGGFDPEDGETIYAQKFQGRVTMTGDTSTDTAYLELSSLRSEDTALYYCATGRYTSLATTYGFDYWGQGTLVTVSS VL: EIVMTQSPATLSLSPGERATLSCRASQLVSSYLAWYQQKPGQAPRLLIYGASSRATGIPDRFSGSGSGTDFTLTISRLEPEDFAVYYCQQYDNWPYTFGQGTKLEIK	0.067 µg/mL
E35-scFv LS28W (scFv, V domains shown) VH: QMQLVQSGAEVKKPGASVKVSCKVSGYTLTELSIHWVRQAPGKGLEWMGGFDPEDGETIYAQKFQGRVTMTGDTSTDTAYLELSSLRSEDTALYYCATGRYTSLATTYGFDYWGQGTLVTVSS VL: EIVMTQSPATLSLSPGERATLSCRASQWVSSYLAWYQQKPGQAPRLLIYGASSRATGIPDRFSGSGSGTDFTLTISRLEPEDFAVYYCQQYDNWPYTFGQGTKLEIK	0.06 µg/mL
E35-scFv LS28A (scFv, V domains shown) VH: QMQLVQSGAEVKKPGASVKVSCKVSGYTLTELSIHWVRQAPGKGLEWMGGFDPEDGETIYAQKFQGRVTMTGDTSTDTAYLELSSLRSEDTALYYCATGRYTSLATTYGFDYWGQGTLVTVSS VL: EIVMTQSPATLSLSPGERATLSCRASQAVSSYLAWYQQKPGQAPRLLIYGASSRATGIPDRFSGSGSGTDFTLTISRLEPEDFAVYYCQQYDNWPYTFGQGTKLEIK	0.116 µg/mL
E35-scFv LS28P (scFv, V domains shown) VH: QMQLVQSGAEVKKPGASVKVSCKVSGYTLTELSIHWVRQAPGKGLEWMGGFDPEDGETIYAQKFQGRVTMTGDTSTDTAYLELSSLRSEDTALYYCATGRYTSLATTYGFDYWGQGTLVTVSS VL: EIVMTQSPATLSLSPGERATLSCRASQPVSSYLAWYQQKPGQAPRLLIYGASSRATGIPDRFSGSGSGTDFTLTISRLEPEDFAVYYCQQYDNWPYTFGQGTKLEIK	0.089 µg/mL
E35-scFv LS28T (scFv, V domains shown) VH: QMQLVQSGAEVKKPGASVKVSCKVSGYTLTELSIHWVRQAPGKGLEWMGGFDPEDGETIYAQKFQGRVTMTGDTSTDTAYLELSSLRSEDTALYYCATGRYTSLATTYGFDYWGQGTLVTVSS VL: EIVMTQSPATLSLSPGERATLSCRASQTVSSYLAWYQQKPGQAPRLLIYGASSRATGIPDRFSGSGSGTDFTLTISRLEPEDFAVYYCQQYDNWPYTFGQGTKLEIK	0.088 µg/mL

The remaining lines, values ahead:

IC50, TF-1 cell proliferation	Binder
0.235 µg/mL	E35-scFv LS31L (scFv, V domains shown) VH: QMQLVQSGAEVKKPGASVKVSCKVSGYTLTELSIHWVRQAPGKGLEWMGGFDPEDGETIYAQKFQGRVTMTGDTSTDTAYLELSSLRSEDTALYYCATGRYTSLATTYGFDYWGQGTLVTVSS VL: EIVMTQSPATLSLSPGERATLSCRASQSVSLYLAWYQQKPGQAPRLLIYGASSRATGIPDRFSGSGSGTDFTLTISRLEPEDFAVYYCQQYDNWPYTFGQGTKLEIK
0.681 µg/mL	E35-scFv LS31I (scFv, V domains shown) VH: QMQLVQSGAEVKKPGASVKVSCKVSGYTLTELSIHWVRQAPGKGLEWMGGFDPEDGETIYAQKFQGRVTMTGDTSTDTAYLELSSLRSEDTALYYCATGRYTSLATTYGFDYWGQGTLVTVSS VL: EIVMTQSPATLSLSPGERATLSCRASQSVSIYLAWYQQKPGQAPRLLIYGASSRATGIPDRFSGSGSGTDFTLTISRLEPEDFAVYYCQQYDNWPYTFGQGTKLEIK
1.34 µg/mL	E35-scFv LS31D (scFv, V domains shown) VH: QMQLVQSGAEVKKPGASVKVSCKVSGYTLTELSIHWVRQAPGKGLEWMGGFDPEDGETIYAQKFQGRVTMTGDTSTDTAYLELSSLRSEDTALYYCATGRYTSLATTYGFDYWGQGTLVTVSS VL: EIVMTQSPATLSLSPGERATLSCRASQSVSDYLAWYQQKPGQAPRLLIYGASSRATGIPDRFSGSGSGTDFTLTISRLEPEDFAVYYCQQYDNWPYTFGQGTKLEIK
0.832 µg/mL	E35-scFv LS31E (scFv, V domains shown) VH: QMQLVQSGAEVKKPGASVKVSCKVSGYTLTELSIHWVRQAPGKGLEWMGGFDPEDGETIYAQKFQGRVTMTGDTSTDTAYLELSSLRSEDTALYYCATGRYTSLATTYGFDYWGQGTLVTVSS VL: EIVMTQSPATLSLSPGERATLSCRASQSVSEYLAWYQQKPGQAPRLLIYGASSRATGIPDRFSGSGSGTDFTLTISRLEPEDFAVYYCQQYDNWPYTFGQGTKLEIK
0.279 µg/mL	E35-scFv LS31G (scFv, V domains shown) VH: QMQLVQSGAEVKKPGASVKVSCKVSGYTLTELSIHWVRQAPGKGLEWMGGFDPEDGETIYAQKFQGRVTMTGDTSTDTAYLELSSLRSEDTALYYCATGRYTSLATTYGFDYWGQGTLVTVSS VL: EIVMTQSPATLSLSPGERATLSCRASQSVSGYLAWYQQKPGQAPRLLIYGASSRATGIPDRFSGSGSGTDFTLTISRLEPEDFAVYYCQQYDNWPYTFGQGTKLEIK
0.649 µg/mL	E35-scFv LS31W (scFv, V domains shown) VH: QMQLVQSGAEVKKPGASVKVSCKVSGYTLTELSIHWVRQAPGKGLEWMGGFDPEDGETIYAQKFQGRVTMTGDTSTDTAYLELSSLRSEDTALYYCATGRYTSLATTYGFDYWGQGTLVTVSS VL: EIVMTQSPATLSLSPGERATLSCRASQSVSWYLAWYQQKPGQAPRLLIYGASSRATGIPDRFSGSGSGTDFTLTISRLEPEDFAVYYCQQYDNWPYTFGQGTKLEIK
